Among the data in a protein production outcome set (Wang et al. 2014) are protein production values, retold here.

The data set can be described thus: label from the status in PepcDB records.
As to “MTQQPRSTARTPASAEDPAAAAAHPPLAAPRPPAEHRVWPRTFHDRLTAPLPGLKAFARFAREGAVRPGPAGLADVPRLPCAPGPLPRVDARTVAVTWAGHASWVVRIGGLTVLTDPVWSRRILGTPPRVTPVGVPWSALPRVDAVVISHNHYDHLDAPTLRRLPRDTPVLVPAGLGRWFHRRRFTHVTELDWWEATELNGVRFDFVPAHHWSKRSLTDTCRTLWGGWVLTDPDGRRVYFAGDTGYGHWFTRIGRRYPGIDLALLPIGAYDPRWWLSDVHCDPEEAVRAAQDVGARRMAPMHWGTFVLSAEPVLEPLARVRAAWQQAGLPRERLWDLPIGASRVLE”, the protein production result was “failed”.
Turning to “MTQQTFLVEIGTEELPPKALRSLAESFAANFTAELNNANLPYGEVIWYAAPRRLALKVTNLSATQADREVEKRGPAIAQAFDAEGKPSKAAEGWARGCGITVDQAERLVTDKGEWLLYRAHVKGQSAQLLLAGMVNTALSKLPIPKLMRWGDKDTQFVRPVHTVTMLLGSEVIPGTVLGIDSDRIIRGHRFMGEPEFTLDNADQYPQVLQERGKVIADYELRKAIIKRDAELAAQKIGGVADLSESLLEEVASLVEWPVVLTAKFEEKFLAVPAEALVYTMKGDQKYFPVYDTAGNLLPNFIFVANIESKDPQQIISGNEKVVRPRLADAEFFFKTDRKKRLEDNLPRLETVLFQQQLGTLRDKTDRIQALAGWVAAQIGADVNHATRAGLLSKCDLMTNMVFEFTDTQGVMGMHYARHDGEAEDVAVALNEQYQPRFAGDDLPSNPVACALAIADKMDTLAGIFGIGQHPKGDKDPFALRRAALGVLRIIVEKNLPLDLQTLTEEAVRLYGSKLTNTKVVDEVIEFMLGRFRAWYQDEGHSVDTIQAVLARRPTRPADFDARVKAVTYFRTLDAAAALAAANKRVSNILAKSTDKLNDHVRASVLKEPAELKLATHLVVLRDKLEPVFAAGQYQEALVELAALRETVDEFFESVMVMDEDDAVRVNRLTLLSKLRELFLQVADISLLQ”, the protein production result is reported as “not failed”.
Then “MTQRAGIHPSARRPSAFDPPIGCARPAMTDTLSLRPIVGRRRLWELDPHFHCSIVGTCLTMSDLRKLATKTRLSVPADAPDYRLHGVFVRAAGAAGPAEKGIAKLMDKDLERRHTRALAQFRKAADNDALEALWDGAREAGDIPGPYWALMCHPLASRTLLERAFGEVHMLSHLMGAANRADVRRLAEMERETEAVEDRLAEAEARRLREIEIKQGEIGQLRAAIEAERARTRALVRRLEEAGEGGCRDLRIQTLEATMEGLRERLNREAWRADRLQGKLAEAERLLTEVRADRDDLRRRLAEQAEDLRTLEDLALDDDGEAGDRPPLDLGGRTILYVGGRPRTVPSLRKLVEDSNGRFAHHDAGREDGRAHLGEVLSGADIVICPVDCISHDACLKAKRACLKRGTPFVPLSSAGLGAFARCLRETAPLFAPANDGAALAAELEHHHHHH”, with “failed”; and “MTQRKVYAPVPVMVAGIAIIATRFLGILLLVWELGLSDLSGWIGSNAEAWDSTLVLLLSLIIVGVEIRCGFAVLAGVNWGRWGYIACQGVVVCYLLLASLSEFMPAIFHISGENHAAVLHQLLMQKIPDLLVIVLLFLPRRSKRFFLRQK”, with “failed”; and “MTQRPRQDERAKDVWFEYVLTAGRFSAWPIRWQGWLATALLIVGPITGMMAIAKLAPGVPPFVLVLGAMTVCFGTVFPLAYFKGRPAKSRG”, with “failed”.
“MTQTDRPCLAALVILILLQLIMLFSLFAGVPPHPPIATPLFGIGPFIGASVSAAIAAIVLGESRAARVLALLAVLGALVSFGPQKYLDPQFPLIWPAVIAAQLAAITVLVRLLPALSRQDA”: the protein production result is listed as “failed”.
In the case of “MTQTVDIENTDNVLSRRDSNAETQQMLRQRFETQPDLMPAQLASELGIAELEVVTALPQAQRVFLPLAHMDELLQSLPEWGSLTTIVMLSGSVFEFKGDFPQGKFAHGYYNLYSKGDGLHGHLKLDGMRAIALISRPFRGSESHSINFFGPQGEVVFKVYLGRDKQRVLFPDQVRRFKALAATFAD”, the protein production entry is “failed”.
Regarding “MTRFNRFRRTLMQWTGSLPLLGALPLSKLAQAQGAEQPAASGTPPAGGTRAPRFAYVGTYTFDAPGGTAGGPPARGIYVLAPRGDAWSQAQVVESANPSFLAVHPNQRCLYAINEIDVYEGRATGTAEAYAIDPRDGRLTLLNRQPLSLSGTIPAHVAVSPDGQHLAVALYGGGAYNVLPIGADGRLGSVSGLFKDTGSGPDTARQEAPHAHMVLFDPTGRHILGTDLGTDRINVFALEDGKLTPRDRAQLKPGGGPRHLALHPSGKLLYVISELDSTVACHGYDPATGRVLDERQRIATTPADYTGQKSGAALVMHPSGRFLYASNRRLKSEHPLADSIAAFSIDPASGRLAALQYWSEGLRFPRALTMADDGRHLYALSQKGDTILRLRIDDATGRLDQPAVVSNVPTPVCLVFAG”, the protein production result was “failed”.
Then “MTRIASHRGGTLEFGDSTPHGFTATAAMALEEVEFDLHPTADGAIVVHHDPTLDATTDMTGAIVDMTLAKVKTATIRYGAGSHPMTLEELCALYVDSHVNFRCEIKPGVDGLPYEGFVALVIAGLERHSMLERTTFSSFLLASMDELWKATTRPRLWLVSPSVLQQLGPGAVIETAIAHSIHEIGVHIDTADAGLMAQVQAAGLDFGCWAAHTPSQITKALDLGVKVFTTDRPTLAIALRTEHRMEASV”, with “not failed”; and “MTRIIPFALAVAALATAGAAQASTMVIGGGAAKECSDSALKGRSDKRSVLACTSALELENLNFRDRARTYVNRGVLQMRQKDFGAARSDFDAAGAIDPNLGEVFVNRGAAYVGEERYREGVEQIDKGLALGVKEPEKAWFNRGLANEGLGDLKAAFRDYSRAAELNPDWPAPKLELTRFSVKRP”, with “failed”.
As to “MTRNDSGDLISRNDSTNHMNTTQPQKMLPEATFSDRMLEIGIKYKKQLTALVVVICLAAGGTLFWMQKTKVDEVQASLALAKITPWIEMGDVNKAVNGEGSIKGLNSIIKTWGGTPSGKTARLYMAYILLNSGKPDDALSIYKGFSSDNKDLQASALAGAAACHVQKKAFAEAAPEYEKASETAENETLKSMYLTKAAESYSAAGQADKAAKLYDQVIKTWPATSSAGMAQRALLRLAGAGVQIPQI”, the protein production entry is “failed”.
Under “MTRPERAPLSASARIEVPFHDVDAMAVCWHGHYLKYFEIGRAALLRAFDYDYPEMRASGYLWPVVEAHLKYIRPATYGQRIEVRATLIEYENRLKIGYEIADCASGQRLTKGHTIQVAVCAATSELQFVSPAVVFEKVERAWADLEHHHHHH” stands “failed”; under “MTRPQAAAEDARNAMVAGLLASGISVNGLQPSHNPQVAAQMFTTATRLDPKMCDAWLARLLAGDQSIEVLAGAWAAVRTFGWETRRLGVTDLQFRPEVSDGLFLRLAITSVDSLACAYAAVLAEAKRYQEAAELLDATDPRHPFDAELVSYVRGVLYFRTKRWPDVLAQFPEATQWRHPELKAAGAAMATTALASLGVFEEAFRRAQEAIEGDRVPGAANIALYTQGMCLRHVGREEEAVELLRRVYSRDAKFTPAREALDNPNFRLILTDPETIEARTDPWDPDSAPTRAQTEAARHAEMAAKYLAEGDAELNAMLGMEQAKKEIKLIKSTTKVNLARAKMGLPVPVTSRHTLLLGPPGTGKTSVARAFTKQLCGLTVLRKPLVVETSRTKLLGRYMADAEKNTEEMLEGALGGAVFFDEMHTLHEKGYSQGDPYGNAIINTLLLYMENHRDELVVFGAGYAKAMEKMLEVNQGLRRRFSTVIEFFSYTPQELIALTQLMGRENEDVITEEESQVLLPSYTKFYMEQSYSEDGDLIRGIDLLGNAGFVRNVVEKARDHRSFRLDDEDLDAVLASDLTEFSEDQLRRFKELTREDLAEGLRAAVAEKKTK”, “failed”.
Regarding “MTRPTHPNALIWLLLSIAIIALDQATKAWVLTSLPEYIPVPVIHGFWNWYRSYNTGAAFSFLSDAGGWQMWLFIALALGISGLLTFWLSRTPRREWRSALPYALIIGGGIGNVIDRFLHGHVVDFIQWYVGSYYWPSFNLADSAIVAGAIGIGLLSLFDSKHSPKTP”, the protein production entry was “failed”.
Turning to “MTRQRIAIDMDEVLADTLGAVVKAVNERADLNIKMESLNGKKLKHMIPEHEGLVMDILKEPGFFRNLDVMPHAQEVVKQLNEHYDIYIATAAMDVPTSFHDKYEWLLEYFPFLDPQHFVFCGRKNIILADYLIDDNPKQLEIFEGKSIMFTASHNVYEHRFERVSGWRDVKNYFNSIEK”, the protein production result is “failed”.
Then “MTRRALFGPKVAPLIQAASLTLALLLFLAACGPKGSYENVGPEELYEALAAGALVVDVRTPGEFAQGHVPGAINLPVEEVARWADRIPKDRPVYLYCRSGNRSRKAAEYLARKGYTNLYNVEGGVLAIARAGYPLVR”, with “failed”; and “MTRRGAQKASPSRAPGETALSTLYVTHPSAVEHVVPTGHPERPARMQAVERALEDERFAALVRCHAPRAEASVAELVHPASYVETIVAASPDEGFFQIDGDTLMSPGSLNTCLHAIGGSNHAVDAVMKGECANAFVAMRPPGHHAERDRAMGFCLFNHAAIAVRHAQKAFGATRVALVDFDVHHGNGSQDIFWADKTVMYASTHQMPLFPGSGATGERGDHDTIVNAPLKAFDGSELFREAFEARILPRLDAFAPDLIVISAGFDAHKLDPLANIQLDEADFGWATRRLMEVADRHAGGRVVSILEGGYSLDGLARSVAAHMDALMGR”, with “failed”.
“MTRRLVLMLALLSGSAGASGSFFTLLQTWQGLGHAPIAVSPDGRLLALTRPAPRTPAYAPYDTRIEVRDTAKMRRLYRVPAANGDGKTLLFSPDSRTLWSAHSGTLHYDAWTGKLADNREGSDGAGVSALAFAPGGQSYVLAGVNAVGQTRLVRVGVSPLRSFWPVTRPTAGDGMQPNWTSALAFSPDGRWVASGSVGGGVILRSSVTGRPLRVLADEPGQAPHRARLVDLLFLSPARLLSASADGQVRLWDAATGRALASLPCGERLGAVVQLPGGTRVVAATSRGLQLIETSGGRLRRLETVGGDYADVGVSAAGELWAITRGGTLSHWRLLSR”: the protein production result is given as “failed”.
Then “MTRRRKILTGVLALVVLAAGGLAAARALGPGGTRVTAYFDRAIGVYAGSDLRILGVRVGEVESVDPEGTRVRVGLRLDDGIKVPEDARAVVVAPSVVADRYVQLTPAYRTGPALADGAVLPASRNHVPVEIDQIYDSITELGDALGPDGANADGALSELLRTGADNLDGNGEAIGDGVEQFGKAAKTLDGSSGDLFETLSSLQTFTTMLKNKDTDVRTAQERLDEVVSFFADNKDDLTGALEELGKALGQVKTFIEDNRGELKKNVDRLVPITRTLVEQRASLAEALDVAPLAADNVVNAYNPDTRTLDGRANLNEISSGGPLLPLPVAGTEKGEGRLEHHHHHH”, with “not failed”; and “MTRRVIALAGGATFKDIVRTMETQLISALPVIDSGSHVIGVVSEADVLRKEEFRDSDQLRGPRSRPPGALVKARAVTAEDLMTAPAVTVHPKAPVARAARLMARRRVKRLPVVDDEGVLQGIVSRADLLRVFLRSDPDIAEEVRREIVGGRFPEGLGSVRVEVHEGVVTLTGRVPDTSLVPLAERLVRSVEGVVDVRCVLTGPRHRMTGESEKAGAAAHRPGP”, with “failed”; and “MTRTMSFHKNCELCTTAGGEILWQDALCRVVHVENQDYPGFCRVILNRHVKEMSDLRPAERDHLMLVVFAVEEAVREVMRPDKINLASLGNMTPHVHWHVIPRFKRDRHFPNSVWGETKRESLPQALDQGSTTALKKAISVRLDQGEPVFMGM”, with “not failed”.
Under “MTRTSKIAVIGGGMAGLAAAAGFDDAGFVVELYERQSYDSKRVNCGEAMTAVSKIPLEPTVENGFLNPLPAMEVEVYDGIDADRHRTGAGTFPAADTYITDRNVVEQSWAEQLSEKGVDIHENQSITRTDFHEFTDEYDLVVDATGQPSLSSKALGTTNEYSGYMVALNSDVEGDFTELYPNSRIILENYTGYSWAFPKTSQRANVGIGWTVSDRPSDYMKALREACKRNGWPVPSQERTNVAIIPEGPSLDPDRTYLPEHSVVRVGDAAGIANRLTGKGISQAVESGFLAAELANSGQLHNFPDSLYQRMKTEYIFATVVRYFLETRNPKVLGAAIRAAAGIDIEDVDRSPSTVLLRLLRHPVLFARIFSRRRVLNRVYGGMTNQWELIN” stands “failed”.
